The values below come from IntAct's records for PubMed 11297558.

To fix the notation:
B1: Adhesion G protein-coupled receptor E2 (Homo sapiens), Q9UHX3 (parent)
chain: MGGRVFLVFLAFCVWLTLPGAETQDSRGCARWCPQDSSCVNATACRCNPGFSSFSEIITTPMETCDDINECATLSKVSCGKFSDCWNTEGSYDCVCSPGYEPVSGAKTFKNESENTCQDVDECQQNPRLCKSYGTCVNTLGSYTCQCLPGFKLKPEDPKLCTDVNECTSGQNPCHSSTHCLNNVGSYQCRCRPGWQPIPGSPNGPNNTVCEDVDECSSGQHQCDSSTVCFNTVGSYSCRCRPGWKPRHGIPNNQKDTVCEDMTFSTWTPPPGVHSQTLSRFFDKVQDLGRDYKPGLANNTIQSILQALDELLEAPGDLETLPRLQQHCVASHLLDGLEDVLRGLSKNLSNGLLNFSYPAGTELSLEVQKQVDRSVTLRQNQAVMQLDWNQAQKSGDPGPSVVGLVSIPGMGKLLAEAPLVLEPEKQMLLHETHQGLLQDGSPILLSDVISAFLSNNDTQNLSSPVTFTFSHRSVIPRQKVLCVFWEHGQNGCGHWATTGCSTIGTRDTSTICRCTHLSSFAVLMAHYDVQEEDPVLTVITYMGLSVSLLCLLLAALTFLLCKAIQNTSTSLHLQLSLCLFLAHLLFLVAIDQTGHKVLCSIIAGTLHYLYLATLTWMLLEALYLFLTARNLTVVNYSSINRFMKKLMFPVGYGVPAVTVAISAASRPHLYGTPSRCWLQPEKGFIWGFLGPVCAIFSVNLVLFLVTLWILKNRLSSLNSEVSTLRNTRMLAFKATAQLFILGCTWCLGILQVGPAARVMAYLFTIINSLQGVFIFLVYCLLSQQVREQYGKWSKGIRKLKTESEMHTLSSSAKADTSKPSTVN
B2: Adhesion G protein-coupled receptor E5 (Homo sapiens), P48960 (parent)
chain: MGGRVFLAFCVWLTLPGAETQDSRGCARWCPQNSSCVNATACRCNPGFSSFSEIITTPTETCDDINECATPSKVSCGKFSDCWNTEGSYDCVCSPGYEPVSGAKTFKNESENTCQDVDECQQNPRLCKSYGTCVNTLGSYTCQCLPGFKFIPEDPKVCTDVNECTSGQNPCHSSTHCLNNVGSYQCRCRPGWQPIPGSPNGPNNTVCEDVDECSSGQHQCDSSTVCFNTVGSYSCRCRPGWKPRHGIPNNQKDTVCEDMTFSTWTPPPGVHSQTLSRFFDKVQDLGRDSKTSSAEVTIQNVIKLVDELMEAPGDVEALAPPVRHLIATQLLSNLEDIMRILAKSLPKGPFTYISPSNTELTLMIQERGDKNVTMGQSSARMKLNWAVAAGAEDPGPAVAGILSIQNMTTLLANASLNLHSKKQAELEEIYESSIRGVQLRRLSAVNSIFLSHNNTKELNSPILFAFSHLESSDGEAGRDPPAKDVMPGPRQELLCAFWKSDSDRGGHWATEGCQVLGSKNGSTTCQCSHLSSFAILMAHYDVEDWKLTLITRVGLALSLFCLLLCILTFLLVRPIQGSRTTIHLHLCICLFVGSTIFLAGIENEGGQVGLRCRLVAGLLHYCFLAAFCWMSLEGLELYFLVVRVFQGQGLSTRWLCLIGYGVPLLIVGVSAAIYSKGYGRPRYCWLDFEQGFLWSFLGPVTFIILCNAVIFVTTVWKLTQKFSEINPDMKKLKKARALTITAIAQLFLLGCTWVFGLFIFDDRSLVLTYVFTILNCLQGAFLYLLHCLLNKKVREEYRKWACLVAGGSKYSEFTSTTSGTGHNQTRALRASESGI

The variants in the first assay derive from B1. The following applies: with daf_human CD55, P08174.
daf_human CD55, P08174, sequence (P08174 whole entry): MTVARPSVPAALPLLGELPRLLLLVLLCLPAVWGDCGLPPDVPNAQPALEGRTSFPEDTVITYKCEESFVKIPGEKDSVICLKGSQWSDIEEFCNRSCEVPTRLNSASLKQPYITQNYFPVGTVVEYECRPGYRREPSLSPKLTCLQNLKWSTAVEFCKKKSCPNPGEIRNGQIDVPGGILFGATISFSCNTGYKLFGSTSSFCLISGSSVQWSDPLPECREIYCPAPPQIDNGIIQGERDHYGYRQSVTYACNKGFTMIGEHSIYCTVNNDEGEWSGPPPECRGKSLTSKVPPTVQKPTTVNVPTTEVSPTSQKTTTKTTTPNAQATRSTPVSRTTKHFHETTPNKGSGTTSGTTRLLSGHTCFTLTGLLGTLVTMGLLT
For the variant L74P, the “effect of a mutation on the interaction” value was “causing an interaction”. On to M62T, for which the “effect of a mutation on the interaction” value is recorded as “causing an interaction”.

D36N: the “effect of a mutation on the interaction” value is reported as “causing an interaction”.

In a further assay the parent is B2. The following applies: with daf_human CD55, P08174.
On to P71L, for which the “effect of a mutation on the interaction” value is on record as “decreasing interaction strength”.

For the variant T59M, the “effect of a mutation on the interaction” value is on record as “decreasing interaction strength”. Turning to N33D, the “effect of a mutation on the interaction” value is given as “decreasing interaction strength”.
